Holding throughout (settings): remark: other sources report otherwise
Test [1] deals with T1, SARS-CoV-2 full length spike protein (wild type) (SARS-CoV-2), P0DTC2.
The target in test [2] is T1, SARS-CoV-2 full length spike protein …. This is another data set of the same source.
Test [3] concerns the target SARS-CoV-2 spike protein (SARS-CoV-2), P0DTC2.
Test [4] addresses SARS-CoV-2 full length spike protein, wild type, expressed on the surface of transiently transfected CHO cells (SARS-CoV-2), P0DTC2.
For test [5], the target named is SARS-CoV-2 full length spike protein (wild type), conjugated to beads (SARS-CoV-2), P0DTC2.
For test [6], the target named is SARS-CoV-2 full length spike protein (wild type), expressed on the surface of transiently transfected CHO cells (SARS-CoV-2), P0DTC2.
Test [7] concerns the target SARS-CoV-2 spike (S) protein, full length, wild type (SARS-CoV-2), P0DTC2.
In test [8] the target is SARS-CoV-2 full length spike protein (wild-type) (SARS-CoV-2), P0DTC2.
Test [9] concerns the target SARS-CoV-2 spike (S) protein (SARS-CoV-2), P0DTC2.

“And” between values parts separate entries of the source, which are not always exact repeats. Identical values can stand only once. Where only a bound is given, the exact number is not on record here.

B1: antibody 315 (antibody, V domains shown)
VH: QVQLVQSGSELKKPGASVKLSCQASGYSFTNHAMNWVRQAPGQGLEWMGWINTNTGNPTYAQGFTGRFVFSLDTSVSTTYLHISSLKAEDTAVYYCARASARPGVATNLDFWGQGTLVVVSS
VL: DIQMTQSPSSLSASVGDRVTITCRASQNIDNYLNWYQQKPGKAPKLLIYAASRLHSGVPSRFSGSGSGTDFTLIISSLQPEDLATYYCQQSYSNPLTFGPGTKVDIR
Consider B1, for which, in test [1], the median fluorescence intensity fold over isotype (fold over isotype control) was 592. Besides, the median fluorescence intensity, fold over isotype control (fold over isotype) in test [2] came to 8.85.

B2: antibody 389 (antibody, V domains shown)
VH: QVQLVESGGGVVQPGRSLRLSCAASGFTFSSYAMHWVRQAPGKGLEWVAVISYDGSNKYYADSVKGRFTISRDNSKNTLYLQMNSLRAEDTAVYYCASQGRMYVRGVDYGVYWGQGTLVTVSS
VL: NFMLTQPHSVSESPGKTVTISCTGSSGSIASNYVQWYQQRPGSAPTTVIYEDNQRPSGVPDRFSGSIDSSSNSASLTISGLKTEDEADYYCQSYDSSKISHAVFGGGTQLTVL
Usually Kd stands for a measure of binding affinity in units of concentration. A higher Kd goes with weaker binding. Broadly, the koff is a measure of how fast the partners let go of each other. Lower therefore signals a long-lived complex. What is called kon is a measure of how fast the partners come together. A lower kon goes with slow association. In test [3], B2 displayed a Kd of less than 0.0222 nM, a dissociation rate constant (koff) of less than 1e-05 s⁻¹ and an association rate constant (kon) of 450000 M⁻¹ s⁻¹. In addition, the median fluorescence fold over isotype control (fold over isotype) in test [4] turned out to be 0.72.

B3: antibody 396 (antibody, V domains shown)
VH: QVQLQQWGAGLLKPSETLSLTCAVYGGSFSGYYWSWIRQPPGKGLEWIGEIIHSGSTNYNPSLKSRVTISVDTSKNQFSLKLSSVTAADTAVYYSARRTGLLWFREGSYYFDYWGQGTLVTVSS
VL: DIQMTQSPSSLSASVGDRVTITCRASQGIRNDLGWYQQKPGKAPKRLIYAASSLQSGVPSRFSGSGSGTEFTLTISSLQPEDFATYYCLQHNSYPLTFGGGTKVEIK
In the case of B3, in [5], the binding signal, bead assay (fold over isotype) was 553.

B4: antibody 472 (antibody, V domains shown)
VH: EVQLVESGGGLIQPGGSLRLSCAASGFTVSSNYMSWVRQAPGKGLEWVSVIYSGGTTHYADSVKGRFTISRDNSKNTLYLQMNSLRAEDTAVYYCANYGMDVWGQGTTVTVSS
VL: SYELTQPSSVSVSPGQTARITCSGDVLAKKYARWFQQKPGQAPVLVIYKDSERPSGIPERFSGSSSGTTVTLTISGAQVEDEADYYCYSAADKVFGGGTKLTVL
Take B4: in test [3], the dissociation constant Kd was less than 0.469 nM, the koff was less than 1e-05 s⁻¹ and the association rate constant (kon) is 21300 M⁻¹ s⁻¹. In addition, in test [6], the median fluorescence intensity, fold over isotype control (fold over isotype) is 0.91.

B5: anti-SARS-CoV-2 antibody 495 (antibody, V domains shown)
VH: QITLKESGPTLVKPTQTLTLTCTFSGFSLSTSGVGVGWIRQPPGKALEWLALIYWDDDKRYSPSLKSRLTITKDTSKNQVVLIMTNMDPVDTATYYCAHRDSSSWFDLDAFDIWGQGTMVIVSS
VL: QSVLTQPPSVSEAPRQRVTISCSGSSSNIGNNAVNWYQQLPGKAPKLLIYYDDLLPSGVSDRFSGSKSGTSASLAISGLQSEDEADYYCAAWDDRLNGPVFGGGTKLTVL
Regarding B5, in test [7], the median fluorescence fold over isotype (fold over isotype) is 1090 and 384 and 530.

B6: anti-SARS-CoV-2 antibody 485 (antibody, V domains shown)
VH: QVQLQESGPGLVKPSGTLSLTCAVSGASISSSNWWSWVRQPPGKGLEWIGEIYHSGSTNYNPSLKSRVTISVDKSKNQFSLKLSSVTAADTAVYYCARRSYYGSGSYYPFDYWGQGTLVTVSS
VL: QSALTQPASVSGSPGQSITISCTGTSSDVGSYNLVSWYQQHPGKAPKLMIYEGRKRPSGVSNRFSGSKSGNTASLTISGLQAEDEADYYCCSYAGSSTYVFGTGTKVTVL
As for B6, in [7], the median fluorescence fold over isotype (fold over isotype) is 510.

B7: antibody 452 (antibody, V domains shown)
VH: QVQLVESGGGLVKPGGSLRLSCAASGFTFSDYYLSWIRQAPGKGLEWVSYISSSGSNIYYADSVKGRFTISRDNAKNSLYLQMNSLRADDTAVFYCARAGRYCSGGSCRVEYFQHWGQGTLVTVSS
VL: SYELTQPPSVSVSPGQTARITCSGDALPKQYAYWYQQKPGQAPVLVIYKDNERPSGIPERFSGSSSGTTATLTISGVQAEDEADYYCQSADSSGTVVFGGGTKLTVL
In test [8], B7 yielded a Binding to Wild-Type SARS-CoV-2 (Bead Assay) of 854. In addition, the median fluorescence intensity, fold over isotype control (fold over isotype) in test [6] is 26.8.

B8: antibody 269 (antibody, V domains shown)
VH: QLQLQESGPGLVKPSETLSLTCTVSGGSISSSSYYWGWIRQPPGKGLEWIGNIYYSGSTYYNPSLKSRVTISVDTSKNQFSLKLSSVTAADTAVYYCAGEELDIVATIYSSRYYYYGMDVWGQGTTVTVSS
VL: QSALTQPASVSGSPGQSITISCTGTSSDVGGYNYVSWYQQHPGKAPKLMIYEVSNRPSGVSNRFSGSKSGNTASLTISGLQAEDEADYYCSSYTSTSTLVFGGGTKLTVL
Regarding B8, the binding signal, bead assay (fold over isotype) in [1] is 480 and 191 and 188. For the same molecule, in test [9], the Kd came to 7.29 nM, the koff came out at 0.000444 s⁻¹ and the association rate constant (kon) turned out to be 60900 M⁻¹ s⁻¹. Also, the median fluorescence intensity, fold over isotype control (fold over isotype) in test [2] was 13.3 and 9.09.

B9: antibody 279 (antibody, V domains shown)
VH: EVQLLESGGGLVQPGGSLRLSCAASGFTFSSYAMSWVRQAPGKGLEWVSTISGSGGNTYYADSVKGRFTISRDNSKNTLYLQMNSLRAEDTAVYYCAKDLFQGLYYGSGEFDYWGQGTLVTVSS
VL: QSALTQPASVSGSPGQSITISCTGTSSDVGAYNYVSWYQQHPGKAPKLMIYGVSNRPSGVSNRFSGSKSGNTASLTISGLQAEDEADYYCSSYTSSSTRVFGTGTKVTVL
Turning to B9, the binding signal, bead assay (fold over isotype) in [1] was 3.09 and 1.36 and 1.11. In [9], this molecule came in with an equilibrium dissociation constant (Kd) of 52.3 nM, a koff of 0.00195 s⁻¹ and an association rate constant (kon) of 37300 M⁻¹ s⁻¹. Moreover, the median fluorescence intensity, fold over isotype control (fold over isotype) in [2] is 8.59 and 3.84.

B10: antibody 392 (antibody, V domains shown)
VH: QVQLQESGPGLVKPSGTLSLTCAVSGGSISSSNWWSWVRQPPGKGLEWIGEIYHSGSTNYNPSLKSRVTISVDKSKNQFSLKLSSVTAADTAVYYCARGWRATLYGMDVWGQGTTVTVSS
VL: QSALTQPASVSGSPGQSITISCTGTSSDVGSYNLVSWYQQHPGKAPKLMIYEVSKRPSGVSNRFSGSKSGNTASLTISGLQAEDEADYYCCSYAGSSTWVFGGGTKLTVL
As to B10, the binding signal, bead assay (fold over isotype) in test [5] came out at 509.

B11: antibody 413 (antibody, V domains shown)
VH: EVQLVESGGGLIQPGGSLRLSCAASGFTVSGNYMNWVRQAPGKGLEWVSVIYSGGSTYYADSVKGRFTISRANSKNTLYLQMNSLRAEDTAVYYCASTSLVRGLIILYYYGMDVWGQGTTVTVSS
VL: QSALTQPASVSGSPGQSITISCTGTSSDVGGYNYVSWYQQHPGKAPKLMIYEVSNRPSGVSNRFSGSKSGNTASLTISGLQAEDEADYYCSSYTSSSTLVFGGGTKLTVL
As for B11, the Binding to Wild-Type SARS-CoV-2 (Bead Assay) in test [8] was 969 and 367 and 416. In test [3], this molecule gave a dissociation constant Kd of less than 0.0338 nM, a koff of less than 1e-05 s⁻¹ and a kon of 296000 M⁻¹ s⁻¹. Further, the median fluorescence fold over isotype control (fold over isotype) in test [4] came to 1.11.

B12: antibody 390 (antibody, V domains shown)
VH: EVQLVESGGGLIQPGGSLRLSCAASGFTVSSNYMSWVRQAPGKGLEWVSIIYSGGSTYYADSVKGRFTISRDNSKNTLYLQMNSLRAEDSAVYSCATTMVRGLIISYYYGMDVWGQGTTVTVSS
VL: QSALTQPASVSGSPGQSITISCTGTSSDVGGYNYVSWYQQHPGKAPKLMIYEVSNRPSGVSNRFSGSKSGNTASLTISGLQAEDEADYYCSSYTSSSTLVFGGGTKLTVL
Consider B12, for which, in [5], the binding signal, bead assay (fold over isotype) is 637 and 341 and 318. In test [3], this molecule had an equilibrium dissociation constant (Kd) of 0.153 nM, a koff of 1.97e-05 s⁻¹ and a kon of 129000 M⁻¹ s⁻¹. In addition, the median fluorescence fold over isotype control (fold over isotype) in [4] turned out to be 0.73.

B13: anti-SARS-CoV-2 antibody 499 (antibody, V domains shown)
VH: EVQLVESGGGLVKPGGSLRLSCAASGFTFSSYSMNWVRQAPGKGLEWVSSISSSSSYIYYADSVKGRFTISRDNAKNSLYLQMNSLRAEDTAVYYCARAPAGIVVGPDYWGQGTLVTVSS
VL: NFMLTQPHSVSESPGKTVTISCTGSSGSIASNYVQWYQQRPGSAPTTVIFEDNQRPSGVPDRFSGSIDSSSNSASLTISGLKTEDEADYYCQSYHSSNPHVVFGGGTKLTVL
B13: the median fluorescence fold over isotype (fold over isotype) in test [7] was 1120 and 386 and 432.

The values above are taken from patent publication US20210292393A1.
